Assay results as given in article doi:10.1101/2024.10.06.616851.

Molecular target: intracellular (IC) wildtype penton of ASFV, HA-tagged (African swine fever virus (ASFV) Georgia 2007/1) (UniProt Q65190)
Test: non-reducing SDS-PAGE with Western blot

“intracellular (IC) wildtype penton of ASFV, HA-tagged (from UniProt Q65190 1-240) (natural protein)” gave a percent pentamer of 30% and a stoichiometry N of 5.
